Data on 7 compounds can be found in US12459974B2, “Bicyclic peptide ligands specific for Nectin-4” (priority 2018, dated 2025).

SMILES strings stand for the structures. Like-named read-outs stand apart in the source and are kept apart here. *1 amine or outer side, *2 acyl side, *3 side chain or, on linkers, in order; H or OH if unused. Where a SMILES comes first, the peptide text is derived from it. Bridges are numbered along the chain shown (N, C = ends). Roman numbers before positions name the chains, in order. [ ]: non-standard residue; d: D form. The star is where a group is joined. TATA = O=C(CC[*:1])N1CN(C(=O)CC[*:2])CN(C(=O)CC[*:3])C1; Dolaproine = CO[C@@H]([C@@H]1CCCN1)[C@@H](C)C(=O)O; Dil = CC[C@H](C)[C@H](NC)[C@@H](CC(=O)O)OC; 1Nal = N[C@@H](Cc1cccc2ccccc12)C(=O)O; X3 = O=C(CCCC(=O)[*:2])NCCC(=O)[*:1]; PABC = O=C(OCc1ccc(N[*:1])cc1)[*:2]; X4 = C[C@@H](N*)[C@@H](O)c1ccccc1; Hyp = O=C(O)[C@@H]1C[C@@H](O)CN1; hArg = N=C(N)NCCCC[C@H](N)C(=O)O; Cit = NC(=O)NCCC[C@H](N)C(=O)O; NMeV = CN[C@H](C(=O)O)C(C)C; Sar = CNCC(=O)O A value given as a limit tells only on which side of the number the result lay.

The test system of one series is HCT116 xenograft. Briefly: Example 9.2: in vivo efficacy in HCT116 xenograft in Balb/c nude mice. Further details: species or system Mus Musculus. The note with it: 3 mg/kg biw.
The test system of series [1] is MDA-MB-468 xenograft. The experiment in a line: Example 9.4: in vivo efficacy in MDA-MB-468 xenograft in Balb/c nude mice. The note with it: 5 mg/kg.
Method: (§1) The major endpoint was to see if the tumor growth could be delayed or mice could be cured. Tumor volume was measured three times weekly in two dimensions using a caliper, and the volume was expressed in mm^3 using the formula: V=0.5 a×b^2 where a and b are the long and short diameters of the tumor, respectively. The tumor size was then used for calculations of T/C value. The T/C value (in percent) is an indication of antitumor effectiveness; T and C are the mean volumes of the treated and control groups, respectively, on a given day. TGI was calculated for each group using the formula: TGI (%)=[1−(Ti−T0)/(Vi−V0)]×100; Ti is the average tumor volume of a treatment group on a given day, T0 is the average tumor volume of the treatment group on the day of treatment start, Vi is the average tumor volume of the vehicle control group on the same day with Ti, and V0 is the average tumor volume of the vehicle group on the day of treatment start.
(§2) A one-way ANOVA was performed to compare tumor volume among groups, and when a significant F-statistics (a ratio of treatment variance to the error variance) was obtained, comparisons between groups were carried out with Games-Howell test. All data were analyzed using GraphPad Prism 5.0. P<0.05 was considered to be statistically significant.
• Species: Mus Musculus • Strain: Balb/c nude • Age: 6-8 weeks • Sex: female • Body weight: 18-22 g • Number of animals: 41 mice plus spare 3.1.2.
The tumor cells were maintained in Leibovitz's L-15 medium supplemented with 10% heat inactivated fetal bovine serum at 37° C. in an atmosphere of 5% CO2 in air. The tumor cells were routinely subcultured twice weekly. The cells growing in an exponential growth phase were harvested and counted for tumor inoculation.
41 animals were randomized when the average tumor volume reached 196 mm^3.
The next series concerns HT-1376 xenograft. The experiment in a line: Example 2: in vivo efficacy in HT-1376 xenograft (bladder cancer model) in CB17-SCID mice. To be noted: 3 mg/kg.
The next series relates to NCI-H526 xenograft. Briefly: Example 9.6: in vivo efficacy in NCI-H526 xenograft in Balb/c nude mice.
The subject of series [2] is MDA-MB-468 xenograft. The experiment in a line: Example 4: in vivo efficacy in MDA-MB-468 xenograft (breast cancer model) in Balb/c nude mice. Also on record: species or system Mus Musculus. The note with it: 5 mg/kg.
Series [3] deals with NCI-H292 xenograft. The experiment in a line: Example 1: in vivo efficacy in NCI-H292 xenograft (NSCLC model) in BALB/c nude mice. Also on record: species or system Mus Musculus. The note with it: 5 mg/kg.
Method: as §1, §2
The NCI-H292 tumor cells will be maintained in medium supplemented with 10% heat inactivated fetal bovine serum at 37° C. in an atmosphere of 5% CO2 in air. The tumor cells will be routinely subcultured twice weekly. The cells growing in an exponential growth phase will be harvested and counted for tumor inoculation.
Each mouse will be inoculated subcutaneously at the right flank with NCI-H292 tumor cells (10×10^6) in 0.2 ml of PBS for tumor development. The animals will be randomized and treatment will be started when the average tumor volume reaches approximately 158-406 mm^3.
In series [4] the test system is NCI-H292 xenograft. The experiment in a line: Example 9.5: in vivo efficacy in NCI-H292 xenograft in Balb/c nude mice. Also on record: species or system Mus Musculus. To be noted: 5 mg/kg; day 9; average.
The subject of the next series is MDA-MB-468 cell line. The experiment in a line: Example 11: HCS assay, Nectin-4 BDC binding study. The format is cell-based. Here is the method: HCS assay was used in Nectin-4 BDC binding study. Cells were incubated with test agent and then washed. Detection was by a fluorescent antibody to MMAE.
The target in the next series is T1, human Nectin-4 (Homo sapiens, UniProt Q96NY8).
T1 sequence (Q96NY8 32-510): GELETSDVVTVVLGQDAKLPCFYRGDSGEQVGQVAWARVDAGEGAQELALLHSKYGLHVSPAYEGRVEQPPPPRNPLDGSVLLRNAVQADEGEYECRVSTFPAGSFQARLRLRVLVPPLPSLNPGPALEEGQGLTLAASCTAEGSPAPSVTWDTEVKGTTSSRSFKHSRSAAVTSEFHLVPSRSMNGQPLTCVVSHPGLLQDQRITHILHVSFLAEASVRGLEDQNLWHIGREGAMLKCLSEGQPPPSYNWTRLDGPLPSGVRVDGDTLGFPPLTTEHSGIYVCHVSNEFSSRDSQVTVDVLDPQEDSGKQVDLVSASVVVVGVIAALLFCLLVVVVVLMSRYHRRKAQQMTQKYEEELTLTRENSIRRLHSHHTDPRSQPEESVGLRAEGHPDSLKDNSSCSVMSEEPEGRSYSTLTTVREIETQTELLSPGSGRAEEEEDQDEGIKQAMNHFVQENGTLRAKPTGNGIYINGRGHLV
Briefly: Nectin-4 competition binding assay (fluorescence polarisation). To be noted: competition with fluorescent peptide SEQ ID NO: 217; read-out: Ki. An outline of the steps:
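Ki derived by cubic-equation fit of mP data, with tracer peptide concentration, its Kd and Nectin-4 level as fixed inputs. Competition set up by adding 2-fold peptide dilutions (≤5% DMSO), then Nectin-4, then fluorescent peptide; polarisation measured as for direct binding.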

Method for HT-1376 xenograft: as §1
A one-way ANOVA was performed to compare tumor volume among groups, and when a significant F-statistics (a ratio of treatment variance to the error variance) was obtained, comparisons between groups were carried out with Games-Howell test. […] P<0.05 was considered to be statistically significant.
• Species: Mus Musculus • Strain: CB17-SCID • Age: 6-8 weeks • Sex: female • Body weight: 18-22 g • Number of animals: 21-41 mice plus spare • Animal supplier: Shanghai LC Laboratory Animal Co., LTD.
The HT-1376 tumor cells were maintained in vitro as a monolayer culture in EMEM medium supplemented with 10% heat inactivated fetal bovine serum at 37° C. in an atmosphere of 5% CO2 in air. The tumor cells were routinely subcultured twice weekly by trypsin-EDTA treatment.
Each mouse was inoculated subcutaneously at the right flank with HT-1376 tumor cells (5×10^6) in 0.2 ml of PBS with matrigel (1:1) for tumor development. Animals were randomized when the average tumor volume reached 153-164 mm^3.
Tumor growth inhibition rate for Test articles in the HT-1376 xenograft model was calculated based on tumor volume measurements at day 21 after the start of treatment.
Method for NCI-H526 xenograft: as §1, §2
• Species: Mus Musculus • Strain: Balb/c nude • Age: 6-8 weeks • Sex: female • Body weight: 18-22 g • Number of animals: 21 mice plus spare 3.1.2.
The NCI-H526 cells were maintained in medium supplemented with 10% heat inactivated fetal bovine serum at 37° C. in an atmosphere of 5% CO2 in air. The tumor cells were routinely subcultured twice weekly. The cells growing in an exponential growth phase were harvested and counted for tumor inoculation.
Each mouse was inoculated subcutaneously at the right flank with NCI-H526 tumor cells (5.0×10^6 in 0.2 ml of PBS for tumor development. 21 animals were randomized when the average tumor volume reached 181 mm^3. The test article administration and the animal numbers in each group were shown in the experimental design table.
Tumor growth inhibition rate for test articles in the NCI-H526 xenograft model was calculated based on tumor volume measurements at day 14 after the start of the treatment.

`CC[C@H](C)[C@@H]([C@@H](CC(=O)N1CCC[C@H]1[C@H](OC)[C@@H](C)C(=O)N[C@H](C)[C@@H](O)c1ccccc1)OC)N(C)C(=O)[C@@H](NC(=O)[C@H](C(C)C)N(C)C(=O)OCc1ccc(NC(=O)[C@H](CCCNC(N)=O)NC(=O)[C@@H](NC(=O)CCCC(=O)NCCC(=O)N(C)CC(=O)N(C)CC(=O)N(C)CC(=O)N(C)CC(=O)N(C)CC(=O)N(C)CC(=O)N(C)CC(=O)N(C)CC(=O)N(C)CC(=O)N(C)CC(=O)N[C@H]2CSCCC(=O)N3CN4CN(C3)C(=O)CCSC[C@H](NC(=O)[C@@H](CCCNC(=N)N)NC(=O)[C@H](Cc3cccc5ccccc35)NC(=O)[C@@H]3CCCN3C2=O)C(=O)N[C@@H](CCSC)C(=O)N[C@@H](CCCCNC(=N)N)C(=O)N[C@@H](CC(=O)O)C(=O)N[C@@H](Cc2c[nH]c3ccccc23)C(=O)N[C@@H](CO)C(=O)N[C@@H]([C@@H](C)O)C(=O)N2CCC[C@H]2C(=O)N2C[C@H](O)C[C@H]2C(=O)N[C@@H](Cc2c[nH]c3ccccc23)C(=O)N[C@H](C(N)=O)CSCCC4=O)C(C)C)cc1)C(C)C` [BCY8255, MMAE-PABC-Cit-Val-Glutaryl-BCY8235] (I: [Sar][Sar][Sar][Sar][Sar][Sar][Sar][Sar][Sar][Sar]CP[1Nal][dR]CM[hArg]DWSTP[Hyp]WC-NH2 / II: V[Cit][PABC][NMeV]V[Dil][Dolaproine]-X4; linker I:11-I:15-I:25 via TATA; linker I:N-II:N via X3) came in with a bodyweight loss in the series on HCT116 xenograft of 15%. The “animal body weight (in words)” value with MDA-MB-468 xenograft [1] and with MDA-MB-468 xenograft [2] was “severe animal body weight loss” in each case. The death entry in the series on HT-1376 xenograft was “found dead on day 16”. The animal bodyweight loss entry with NCI-H526 xenograft (3 mg/kg biw) and with NCI-H526 xenograft (5 mg/kg qw) was “over 15%” each time.

On to `CC[C@H](C)[C@@H]([C@@H](CC(=O)N1CCC[C@H]1[C@H](OC)[C@@H](C)C(=O)N[C@H](C)[C@@H](O)c1ccccc1)OC)N(C)C(=O)[C@@H](NC(=O)[C@H](C(C)C)N(C)C(=O)OCc1ccc(NC(=O)[C@H](CCCNC(N)=O)NC(=O)[C@@H](NC(=O)CCCC(=O)NCCC(=O)N(C)CC(=O)N(C)CC(=O)N(C)CC(=O)N(C)CC(=O)N(C)CC(=O)N[C@H]2CSCCC(=O)N3CN4CN(C3)C(=O)CCSC[C@H](NC(=O)[C@@H](CC(=O)O)NC(=O)[C@H](Cc3ccccc3)NC(=O)[C@@H]3CCCN3C2=O)C(=O)N[C@@H](CCSC)C(=O)N[C@@H](CCCCNC(=N)N)C(=O)N[C@@H](CC(N)=O)C(=O)N[C@@H](Cc2c[nH]c3ccccc23)C(=O)N[C@@H](CO)C(=O)N[C@@H](Cc2c[nH]c3ccccc23)C(=O)N2CCC[C@H]2C(=O)N[C@@H]([C@@H](C)CC)C(=O)N[C@@H](Cc2c[nH]c3ccccc23)C(=O)N[C@H](C(N)=O)CSCCC4=O)C(C)C)cc1)C(C)C` [BCY7683, MMAE-PABC-Cit-Val-Glutaryl-BCY7556] (I: [Sar][Sar][Sar][Sar][Sar]CPF[dD]CM[hArg]NWSWPIWC-NH2 / II: V[Cit][PABC][NMeV]V[Dil][Dolaproine]-X4; linker I:6-I:10-I:20 via TATA; linker I:N-II:N via X3), for which the “bodyweight (in words)” value in the series with NCI-H292 xenograft [3] is “severe bodyweight loss”.

Turning to `CC[C@H](C)[C@@H]([C@@H](CC(=O)N1CCC[C@H]1[C@H](OC)[C@@H](C)C(=O)N[C@H](C)[C@@H](O)c1ccccc1)OC)N(C)C(=O)[C@@H](NC(=O)[C@H](C(C)C)N(C)C(=O)OCc1ccc(NC(=O)[C@H](CCCNC(N)=O)NC(=O)[C@@H](NC(=O)CCCC(=O)NCCC(=O)N(C)CC(=O)N(C)CC(=O)N(C)CC(=O)N(C)CC(=O)N(C)CC(=O)N(C)CC(=O)N(C)CC(=O)N(C)CC(=O)N(C)CC(=O)N(C)CC(=O)N[C@H]2CSCCC(=O)N3CN4CN(C3)C(=O)CCSC[C@H](NC(=O)[C@@H](CCCNC(=N)N)NC(=O)[C@H](Cc3cccc5ccccc35)NC(=O)[C@@H]3CCCN3C2=O)C(=O)N[C@@H](CC(C)C)C(=O)N[C@@H](CCCCNC(=N)N)C(=O)N[C@@H](Cc2c[nH]cn2)C(=O)N[C@@H](Cc2c[nH]c3ccccc23)C(=O)N[C@@H](CO)C(=O)N[C@@H]([C@@H](C)O)C(=O)N2CCC[C@H]2C(=O)N2C[C@H](O)C[C@H]2C(=O)N[C@@H](Cc2c[nH]c3ccccc23)C(=O)N[C@H](C(N)=O)CSCCC4=O)C(C)C)cc1)C(C)C` [BCY8253, MMAE-PABC-Cit-Val-Glutaryl-BCY8231] (I: [Sar][Sar][Sar][Sar][Sar][Sar][Sar][Sar][Sar][Sar]CP[1Nal][dR]CL[hArg]HWSTP[Hyp]WC-NH2 / II: V[Cit][PABC][NMeV]V[Dil][Dolaproine]-X4; linker I:11-I:15-I:25 via TATA; linker I:N-II:N via X3), the bodyweight loss is given as 15% in the series on HCT116 xenograft; more than 15% with NCI-H292 xenograft [3] (day 9, average); more than 15% in the series on NCI-H292 xenograft [4]. Further, the “animal body weight (in words)” value in the series on MDA-MB-468 xenograft [1] and in the series on MDA-MB-468 xenograft [2] was “severe animal body weight loss” each time. Also, the death result with MDA-MB-468 xenograft [1] and with MDA-MB-468 xenograft [2] was “found dead on day 20” throughout.

In the case of `CC[C@H](C)[C@@H]([C@@H](CC(=O)N1CCC[C@H]1[C@H](OC)[C@@H](C)C(=O)N[C@H](C)[C@@H](O)c1ccccc1)OC)N(C)C(=O)[C@@H](NC(=O)[C@@H](NC)C(C)C)C(C)C` [MMAE, Monomethyl auristatin E, reference compound] (H-[NMeV]V[Dil][Dolaproine]-X4), the “binding affinity on MDA-MB-468 cell line (in words)” value in the series on MDA-MB-468 cell line was “almost no detectable binding affinity”. The compound further registered a Max fluorescent intensity with MDA-MB-468 cell line (MDA-MB-468 cell line, fluorescent antibody to MMAE) of 2.95. Besides, the Kd is more than 10 µM in the series on MDA-MB-468 cell line (MDA-MB-468 cell line, historical data, read-out: Historical Kd) and more than 10 µM in the series on MDA-MB-468 cell line (MDA-MB-468 cell line, read-out: Kd). Also, the “retention on the cells (in words)” value in the series with MDA-MB-468 cell line (detection by a fluorescent antibody to MMAE) is listed as “minimal retention”.

Consider `CC[C@H](C)[C@@H]1NC(=O)[C@@H]2CCCN2C(=O)[C@H](Cc2c[nH]c3ccccc23)NC(=O)[C@H](CO)NC(=O)[C@H](Cc2c[nH]c3ccccc23)NC(=O)CNC(=O)[C@H](CCCCN)NC(=O)[C@H](CCSC)NC(=O)[C@@H]2CSCCC(=O)N3CN(CN(C3)C(=O)CCSC[C@H](NC(=O)[C@H](C)N)C(=O)N3CCC[C@H]3C(=O)N[C@@H](Cc3ccccc3)C(=O)NCC(=O)N2)C(=O)CCSC[C@@H](C(=O)N[C@@H](CC(C)C)C(=O)N[C@@H](CCCCN)C(=O)N[C@@H](CC(=O)O)C(N)=O)NC(=O)[C@H](Cc2c[nH]c3ccccc23)NC1=O` [BCY3395, A-(SEQ ID NO: 53)-LKD] (H-ACPFGCMKGWSWPIWCLKD-NH2; linker 2-6-16 via TATA; N-terminus and C-terminus assumed), for which the Ki on human Nectin-4 amounted to 0.0174 µM.

For `CC[C@H](C)[C@@H]1NC(=O)[C@H](CCCNC(=N)N)NC(=O)[C@H](CC(N)=O)NC(=O)[C@@H]2CSCCC(=O)N3CN(CN(C3)C(=O)CCSC[C@H](NC(=O)[C@H](Cc3c[nH]c4ccccc34)NC(=O)[C@H](CCCCN)NC(=O)[C@H](CCC(N)=O)NC(C)=O)C(=O)N[C@@H](C)C(=O)N3CCC[C@H]3C(=O)N[C@@H](CC(C)C)C(=O)N[C@@H](CO)C(=O)N[C@@H](CC(=O)O)C(=O)N[C@@H](Cc3ccc(O)cc3)C(=O)N[C@@H](Cc3cccc4ccccc34)C(=O)N2)C(=O)CCSC[C@@H](C(N)=O)NC1=O` [BCY7998, Ac-QKW-(SEQ ID NO: 153)] (Ac-QKWCAPLSDY[1Nal]CNRIC-NH2; linker 4-12-16 via TATA; C-terminus assumed), on human Nectin-4, the Ki was 0.135 µM.

On to `CC[C@H](C)[C@@H]1NC(=O)[C@@H]2CCCN2C(=O)[C@H](Cc2ccc3ccccc3c2)NC(=O)[C@H](CO)NC(=O)[C@H](Cc2c[nH]c3ccccc23)NC(=O)[C@H](CC(N)=O)NC(=O)[C@H](CCCCN)NC(=O)[C@H](CCSC)NC(=O)[C@@H]2CSCCC(=O)N3CN(CN(C3)C(=O)CCSC[C@H](NC(C)=O)C(=O)N3CCC[C@H]3C(=O)N[C@@H](Cc3ccccc3)C(=O)NCC(=O)N2)C(=O)CCSC[C@@H](C(N)=O)NC(=O)[C@H](Cc2c[nH]c3ccccc23)NC1=O` [BCY7592, Ac-(SEQ ID NO: 87)], for which, at human Nectin-4, the Ki was found to be 0.0374 µM.
